Assay results from publication PMC2621267, “The Influence of Catalysis on Mad2 Activation Dynamics” (PLoS Biology, 2009).
Ends that are not written are not given here. * marks the point of attachment. Biotin = O=C1N[C@H]2[C@H](CS[C@H]2CCCCC(=O)*)N1

B1: GST-Cdc20^111-138 (domain or fragment, UniProt Q12834 111-138, looked up)
chain: EHQKAWALNLNGFDVEEAKILRLSGKPQ
notes: Immobilised on GSH-agarose beads
B2: synthetic biotin-Cdc20^111-138 (peptide, UniProt Q12834 111-138, looked up)
peptide: Biotin-EHQKAWALNLNGFDVEEAKILRLSGKPQ
notes: Cdc20, residues 111-138; Held on the neutravidin-coated surface of the flow chamber through its biotin; also called biotinylated Cdc20 peptide; biotin-Cdc20 peptide^111-138; source: synthetic peptide

Legend:
Conditions in all cases: both partners purified
Full-length Mad2^wt = molecular target: T1, Full-length Mad2^wt (UniProt Q13257 1-205); experiment: pull-down; GST-Cdc20 111-138 (1 uM) immobilised on GSH-agarose beads; 1 uM Mad2 for 24 h at room temperature, or 2 uM Mad2 as a time course; SDS-PAGE and densitometry
T1 construct: Mad2, wild type, full length; purified as a monomer in the open (O-Mad2) conformation; Unlabelled form; also called wild-type Mad2; O-Mad2; source: purified as described [14], final size-exclusion chromatography on Superdex-75 in PBS

Full-length Mad2^F141A = molecular target: T2, Full-length Mad2^F141A (UniProt Q13257 1-205, F141A); experiment: as above
T2 construct: Mad2, full length, Phe141 replaced by Ala; purified as a monomer in the open (O-Mad2) conformation; Unlabelled form; source: purified as described [14], final size-exclusion chromatography on Superdex-75 in PBS

[1] = molecular target: T3, Alexa Fluor 488-labelled Mad2^F141A (UniProt Q13257 1-205, F141A, Alexa 488 C5 maleimide, covalent label (residue not stated)); experiment: real-time confocal fluorescence in a flow chamber, signal in solution; same chamber with surface-held biotin-Cdc20 111-138; loss of Alexa-Mad2 fluorescence from solution followed; parameters of the curves laid over the data, [Cdc20T] = 0.9 uM
T3 construct: Mad2, full length, Phe141 replaced by Ala; monomeric O-Mad2 after labelling; Labelled form of m2; also called Alexa-Mad2^F141A; Alexa-488-Mad2^F141A; source: purified as described [14], labelled with Alexa 488 C5 maleimide, separated from free dye on Superdex-75

[2] = molecular target: T3, Alexa Fluor 488-labelled Mad2^F141A; experiment: real-time confocal fluorescence on a surface in a flow chamber; biotin-Cdc20 111-138 (~1 uM) held on a neutravidin-coated chamber surface; Alexa-488-Mad2 injected at 1-8 uM in PBS; fluorescence on the surface followed; constants from a global fit of rate equations

T3 sequence (Q13257 whole entry F141A): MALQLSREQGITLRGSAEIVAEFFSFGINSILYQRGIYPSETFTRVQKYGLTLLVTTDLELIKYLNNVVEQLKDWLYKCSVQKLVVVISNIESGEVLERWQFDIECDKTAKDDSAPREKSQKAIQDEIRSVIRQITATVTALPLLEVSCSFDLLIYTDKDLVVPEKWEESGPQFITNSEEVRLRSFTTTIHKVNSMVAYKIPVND
T2 sequence (Q13257 whole entry F141A): as above
T1 sequence (Q13257 whole entry): as the sequence (Q13257 whole entry F141A) above, with A141F counted along it

| binding result (Full-length Mad2^wt) | binding result (Full-length Mad2^F141A) | Kd [1] [nM] | kon [1] [M⁻¹ s⁻¹] | Kd [2] [nM] | koff [2] [s⁻¹] | kon [2] [M⁻¹ s⁻¹] | Binder |
| --- | --- | --- | --- | --- | --- | --- | --- |
| binds | binds |  |  |  |  |  | B1 |
|  |  | 240 | 27 | 100 | 4.83e-06 | 48.3 | B2 |
